± gives the uncertainty stated by the source.

First the molecules themselves.
B1: POU domain, class 4, transcription factor 2, residues 256 to 327; numbered along this chain, Q12837 (parent)
chain: RDLEAFAERFKQRRIKLGVTQADVGSALANLKIPGVGSLSQSTICRFESLTLSHNNMIALKPILQAWLEEAE

Variants of B1 are the subject of the data set. Briefly: abundance fitness (aPCA) (normalised: wild type 0, dead -1); higher = more abundant; growth selection in yeast, the domain comes from the species named. To be noted: Homo sapiens.
For RDLEAFAERFKQRRIYLGVTQADVGSALANLKIPGVGSLSQSTICRFESLTLSHNNMIALKPILQAWLEEAE, the abundance fitness was -0.073 ± 0.23.

For RDLEAFAERFKQRRIVLGVTQADVGSALANLKIPGVGSLSQSTICRFESLTLSHNNMIALKPILQAWLEEAE, the abundance fitness was -0.146 ± 0.082.

As for RDLEAFAERFKQRRITLGVTQADVGSALANLKIPGVGSLSQSTICRFESLTLSHNNMIALKPILQAWLEEAE, the abundance fitness was -0.015 ± 0.072.

As for RDLEAFAERFKQRRISLGVTQADVGSALANLKIPGVGSLSQSTICRFESLTLSHNNMIALKPILQAWLEEAE, the abundance fitness was -0.018 ± 0.052.

For RDLEAFAERFKQRRIKLGVTCADVGSALANLKIPGVGSLSQSTICRFESLTLSHNNMIALKPILQAWLEEAE, the abundance fitness is -0.024 ± 0.097.

With RDLEAFAERFKQRRIKLGVTFADVGSALANLKIPGVGSLSQSTICRFESLTLSHNNMIALKPILQAWLEEAE, the abundance fitness was -0.426 ± 0.2.

For the variant RDLEAFAERFKQRRIKLGVTGADVGSALANLKIPGVGSLSQSTICRFESLTLSHNNMIALKPILQAWLEEAE, the abundance fitness is -0.241 ± 0.057.

Take RDLEAFAERFKQRRIKLGVTAADVGSALANLKIPGVGSLSQSTICRFESLTLSHNNMIALKPILQAWLEEAE: the abundance fitness is -0.028 ± 0.091.

As for RDLEAFAERFKQRRIKLGVTEADVGSALANLKIPGVGSLSQSTICRFESLTLSHNNMIALKPILQAWLEEAE, the abundance fitness is -0.258 ± 0.1.

Turning to RDLEAFAERFKQRRIKLKVTQADVGSALANLKIPGVGSLSQSTICRFESLTLSHNNMIALKPILQAWLEEAE, the abundance fitness is -0.47 ± 0.14.

As to RDLEAFAERFKQRRIKLEVTQADVGSALANLKIPGVGSLSQSTICRFESLTLSHNNMIALKPILQAWLEEAE, the abundance fitness is -0.322 ± 0.13.

For RDLEAFAERFKQRRIKLFVTQADVGSALANLKIPGVGSLSQSTICRFESLTLSHNNMIALKPILQAWLEEAE, the abundance fitness was -0.892 ± 0.41.

For RDLEAFAERFKQRRIKLNVTQADVGSALANLKIPGVGSLSQSTICRFESLTLSHNNMIALKPILQAWLEEAE, the abundance fitness was -0.82 ± 0.26.

On to RDLEAFAERFKQRRIKLAVTQADVGSALANLKIPGVGSLSQSTICRFESLTLSHNNMIALKPILQAWLEEAE, for which the abundance fitness is -0.593 ± 0.2.

Turning to RDLEAFAERFKQRRIKLRVTQADVGSALANLKIPGVGSLSQSTICRFESLTLSHNNMIALKPILQAWLEEAE, the abundance fitness is -0.372 ± 0.042.

For RDLEAFAERFKQRRIKLIVTQADVGSALANLKIPGVGSLSQSTICRFESLTLSHNNMIALKPILQAWLEEAE, the abundance fitness was -0.883 ± 0.13.

For the variant RDLEAFAERFKQRRIKLHVTQADVGSALANLKIPGVGSLSQSTICRFESLTLSHNNMIALKPILQAWLEEAE, the abundance fitness was -0.292 ± 0.088.

Regarding RDLEAFAERFKQRRIKLLVTQADVGSALANLKIPGVGSLSQSTICRFESLTLSHNNMIALKPILQAWLEEAE, the abundance fitness is -0.598 ± 0.083.

On to RDLEAFAERFKQRRIKLQVTQADVGSALANLKIPGVGSLSQSTICRFESLTLSHNNMIALKPILQAWLEEAE, for which the abundance fitness is -0.446 ± 0.088.

On to RDLEAFAERFKQRRIKLWVTQADVGSALANLKIPGVGSLSQSTICRFESLTLSHNNMIALKPILQAWLEEAE, for which the abundance fitness was -0.778 ± 0.14.

RDLEAFAERFKQRRIKLPVTQADVGSALANLKIPGVGSLSQSTICRFESLTLSHNNMIALKPILQAWLEEAE: the abundance fitness was -1.14 ± 0.19.

As to RDLEAFAERFKQRRIKLMVTQADVGSALANLKIPGVGSLSQSTICRFESLTLSHNNMIALKPILQAWLEEAE, the abundance fitness was -0.76 ± 0.21.

For the variant RDLEAFAERFKQRRIKLSVTQADVGSALANLKIPGVGSLSQSTICRFESLTLSHNNMIALKPILQAWLEEAE, the abundance fitness was -0.652 ± 0.078.

For RDLEAFAERFKQRRIKNGVTQADVGSALANLKIPGVGSLSQSTICRFESLTLSHNNMIALKPILQAWLEEAE, the abundance fitness was -0.458 ± 0.27.

As to RDLEAFAERFKQRRIKTGVTQADVGSALANLKIPGVGSLSQSTICRFESLTLSHNNMIALKPILQAWLEEAE, the abundance fitness is -0.272 ± 0.11.

For the variant RDLEAFAERFKQRRIKQGVTQADVGSALANLKIPGVGSLSQSTICRFESLTLSHNNMIALKPILQAWLEEAE, the abundance fitness is -0.513 ± 0.1.

Turning to RDLEAFAERFKQRRIKSGVTQADVGSALANLKIPGVGSLSQSTICRFESLTLSHNNMIALKPILQAWLEEAE, the abundance fitness was -0.565 ± 0.074.

As for RDLEAFAERFKQRRIKDGVTQADVGSALANLKIPGVGSLSQSTICRFESLTLSHNNMIALKPILQAWLEEAE, the abundance fitness was -0.681 ± 0.35.

In the case of RDLEAFAERFKQRRIKHGVTQADVGSALANLKIPGVGSLSQSTICRFESLTLSHNNMIALKPILQAWLEEAE, the abundance fitness is -1.06 ± 0.4.

RDLEAFAERFKQRRIKPGVTQADVGSALANLKIPGVGSLSQSTICRFESLTLSHNNMIALKPILQAWLEEAE: the abundance fitness was -0.974 ± 0.17.

Regarding RDLEAFAERFKQRRIKGGVTQADVGSALANLKIPGVGSLSQSTICRFESLTLSHNNMIALKPILQAWLEEAE, the abundance fitness was -0.884 ± 0.15.

As to RDLEAFAERFKQRRIKWGVTQADVGSALANLKIPGVGSLSQSTICRFESLTLSHNNMIALKPILQAWLEEAE, the abundance fitness was -0.589 ± 0.095.

On to RDLEAFAERFKQRRIKKGVTQADVGSALANLKIPGVGSLSQSTICRFESLTLSHNNMIALKPILQAWLEEAE, for which the abundance fitness was -0.286 ± 0.24.

RDLEAFAERFKQRRIKYGVTQADVGSALANLKIPGVGSLSQSTICRFESLTLSHNNMIALKPILQAWLEEAE: the abundance fitness is -0.778 ± 0.32.

Consider RDLEAFAERFKQRRIKAGVTQADVGSALANLKIPGVGSLSQSTICRFESLTLSHNNMIALKPILQAWLEEAE, for which the abundance fitness was -0.394 ± 0.12.

RDLEAFAERFKQRRIKCGVTQADVGSALANLKIPGVGSLSQSTICRFESLTLSHNNMIALKPILQAWLEEAE: the abundance fitness was -0.704 ± 0.12.

Consider RDLEAFAERFKQRRIKRGVTQADVGSALANLKIPGVGSLSQSTICRFESLTLSHNNMIALKPILQAWLEEAE, for which the abundance fitness was -0.733 ± 0.074.

On to RDLEAFAERFKQRRIKVGVTQADVGSALANLKIPGVGSLSQSTICRFESLTLSHNNMIALKPILQAWLEEAE, for which the abundance fitness is -0.592 ± 0.11.

Values taken from the Human Domainome abundance scans (Beltran et al. 2025).
